Assay [1] addresses T1, PSMA on LNCaP prostate cancer cells (UniProt Q04609 1-750, limits assumed).
T1 construct: whole, on cells; Cells fixed with 4% paraformaldehyde before the assay; also called 前列腺特异性膜抗原; LNCaP细胞(表达PSMA)
In words: cell ELISA on fixed LNCaP (PSMA+) against MKN45 (PSMA-) cells, HRP-anti-M13, OD450.

Assay [2] has as its target T2, PSMA胞外区蛋白 (recombinant extracellular region of prostate specific membrane antigen, expressed in HEK-293) (UniProt Q04609 44-750, limits assumed).
T2 construct: extracellular domain; also called 前列腺特异性膜抗原膜外区; PSMA蛋白
In words: indirect phage ELISA, PSMA extracellular region protein coated at 5 μg/mL, HRP-anti-M13 detection. For orientation: ELISA stands for enzyme-linked immunosorbent assay.

T1 sequence (Q04609 whole entry): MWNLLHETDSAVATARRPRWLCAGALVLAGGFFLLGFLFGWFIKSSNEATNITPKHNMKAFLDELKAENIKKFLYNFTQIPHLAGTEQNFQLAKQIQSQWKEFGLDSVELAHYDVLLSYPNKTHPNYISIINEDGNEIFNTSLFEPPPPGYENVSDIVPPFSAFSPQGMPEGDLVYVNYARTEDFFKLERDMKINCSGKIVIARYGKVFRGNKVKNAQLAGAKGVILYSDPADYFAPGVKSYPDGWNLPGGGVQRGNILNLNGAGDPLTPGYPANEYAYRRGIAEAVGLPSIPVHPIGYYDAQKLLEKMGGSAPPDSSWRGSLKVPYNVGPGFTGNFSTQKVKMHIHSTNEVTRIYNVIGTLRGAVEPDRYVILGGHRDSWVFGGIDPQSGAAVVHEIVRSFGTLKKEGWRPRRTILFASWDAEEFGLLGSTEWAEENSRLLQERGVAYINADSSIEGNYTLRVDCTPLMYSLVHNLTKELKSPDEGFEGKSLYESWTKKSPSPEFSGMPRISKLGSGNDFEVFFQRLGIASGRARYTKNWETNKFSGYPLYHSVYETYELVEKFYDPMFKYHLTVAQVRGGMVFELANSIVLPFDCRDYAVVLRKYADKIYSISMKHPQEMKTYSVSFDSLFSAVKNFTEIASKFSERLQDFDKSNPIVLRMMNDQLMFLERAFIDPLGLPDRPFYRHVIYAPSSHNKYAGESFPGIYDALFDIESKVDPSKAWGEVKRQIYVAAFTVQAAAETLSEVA
T2 sequence (Q04609 44-750 limits assumed): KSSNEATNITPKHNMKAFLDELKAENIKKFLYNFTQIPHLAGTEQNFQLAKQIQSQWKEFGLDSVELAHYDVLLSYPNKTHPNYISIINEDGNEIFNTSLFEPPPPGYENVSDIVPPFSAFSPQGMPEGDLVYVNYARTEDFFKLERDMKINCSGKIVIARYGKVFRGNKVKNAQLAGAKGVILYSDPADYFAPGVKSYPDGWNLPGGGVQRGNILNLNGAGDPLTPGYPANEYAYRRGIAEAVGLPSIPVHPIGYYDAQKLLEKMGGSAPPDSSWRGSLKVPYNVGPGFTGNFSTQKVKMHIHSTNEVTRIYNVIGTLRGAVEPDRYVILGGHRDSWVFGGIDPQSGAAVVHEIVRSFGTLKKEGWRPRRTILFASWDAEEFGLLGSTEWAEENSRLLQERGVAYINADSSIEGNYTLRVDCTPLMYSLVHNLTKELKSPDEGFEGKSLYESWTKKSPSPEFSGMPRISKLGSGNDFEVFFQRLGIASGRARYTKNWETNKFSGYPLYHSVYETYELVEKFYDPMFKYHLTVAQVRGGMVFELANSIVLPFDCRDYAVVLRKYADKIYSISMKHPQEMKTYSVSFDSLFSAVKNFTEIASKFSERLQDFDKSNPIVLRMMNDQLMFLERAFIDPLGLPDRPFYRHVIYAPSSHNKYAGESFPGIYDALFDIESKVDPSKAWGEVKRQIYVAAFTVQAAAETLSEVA

B1: 抗前列腺特异性膜抗原单域重链抗体噬菌体阳性克隆 (phage clone displaying the anti-PSMA single-domain heavy-chain antibody) (VHH)
VHH: QVQLVESGGGLVQAGGSLRLSCAASGRTISRYAVGWFRQAPGKDREFVAGITRSSSLTGYTDSVKGRFTISRDNAENTVYLQMNSLKPEDTAVYYCAGGPGSYKYWGKGTQVTVSS
notes: detected with anti-M13 antibodies; also called 展示本发明所述纳米抗体的噬菌体克隆; not shown: hinge/linker and coat protein fusion are not described
B1: the binding result in assay [1] and in assay [2] was “binds” throughout.
